Assay results as given in article PMC2765514 (Biochemistry, 2009).

Columns and labels:
[1] = target: T1, soluble PDZK1 purified from bacteria (human, UniProt Q5T2W1 1-519); experiment: pull-down
T1 sequence (looked up): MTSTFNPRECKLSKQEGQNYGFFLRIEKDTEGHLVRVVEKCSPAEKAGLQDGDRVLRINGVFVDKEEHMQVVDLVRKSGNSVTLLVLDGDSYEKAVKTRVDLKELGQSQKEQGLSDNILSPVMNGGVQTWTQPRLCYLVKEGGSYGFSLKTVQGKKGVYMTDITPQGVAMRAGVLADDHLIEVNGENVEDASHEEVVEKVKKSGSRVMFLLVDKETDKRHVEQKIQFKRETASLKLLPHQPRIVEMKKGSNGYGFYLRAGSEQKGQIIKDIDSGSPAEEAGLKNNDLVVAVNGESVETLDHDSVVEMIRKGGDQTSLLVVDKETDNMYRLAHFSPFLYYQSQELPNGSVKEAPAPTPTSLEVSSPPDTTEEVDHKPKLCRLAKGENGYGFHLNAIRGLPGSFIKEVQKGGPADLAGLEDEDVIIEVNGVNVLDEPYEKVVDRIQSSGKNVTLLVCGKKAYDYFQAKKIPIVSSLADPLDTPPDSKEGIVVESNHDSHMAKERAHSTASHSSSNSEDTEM

[2] = target: T2, soluble PDZK1 ΔDTEM purified from bacteria (human, UniProt Q5T2W1 1-515); experiment: pull-down
T2 sequence (looked up): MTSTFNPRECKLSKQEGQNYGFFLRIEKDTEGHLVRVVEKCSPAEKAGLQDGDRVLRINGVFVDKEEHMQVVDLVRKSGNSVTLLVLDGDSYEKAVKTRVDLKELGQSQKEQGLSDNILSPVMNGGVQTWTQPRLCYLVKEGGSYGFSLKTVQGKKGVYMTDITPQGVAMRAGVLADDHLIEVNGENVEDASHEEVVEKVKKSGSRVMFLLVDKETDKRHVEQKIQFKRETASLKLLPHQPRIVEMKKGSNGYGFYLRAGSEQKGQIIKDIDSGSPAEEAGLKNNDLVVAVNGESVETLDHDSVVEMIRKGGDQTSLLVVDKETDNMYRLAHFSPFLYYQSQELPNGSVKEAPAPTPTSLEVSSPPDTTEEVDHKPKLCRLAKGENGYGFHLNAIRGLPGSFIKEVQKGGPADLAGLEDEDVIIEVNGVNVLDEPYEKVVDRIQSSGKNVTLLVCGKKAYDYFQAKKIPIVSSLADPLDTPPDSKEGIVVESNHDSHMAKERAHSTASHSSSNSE

cross-linking = target: the molecule itself; experiment: cross-linking

B1: GST-PDZK1-tail (domain or fragment, human, UniProt Q5T2W1 458-519, looked up)
chain: KAYDYFQAKKIPIVSSLADPLDTPPDSKEGIVVESNHDSHMAKERAHSTASHSSSNSEDTEM
[1]
  binding result: binds
[2]
  binding result: binds

B2: PDZK1 PDZs 3 and 4 to the end of the protein (amino acids 227–515), soluble (domain or fragment, human, UniProt Q5T2W1 227-515, looked up)
chain: FKRETASLKLLPHQPRIVEMKKGSNGYGFYLRAGSEQKGQIIKDIDSGSPAEEAGLKNNDLVVAVNGESVETLDHDSVVEMIRKGGDQTSLLVVDKETDNMYRLAHFSPFLYYQSQELPNGSVKEAPAPTPTSLEVSSPPDTTEEVDHKPKLCRLAKGENGYGFHLNAIRGLPGSFIKEVQKGGPADLAGLEDEDVIIEVNGVNVLDEPYEKVVDRIQSSGKNVTLLVCGKKAYDYFQAKKIPIVSSLADPLDTPPDSKEGIVVESNHDSHMAKERAHSTASHSSSNSE
cross-linking
  stoichiometry N: 2
